Results reported in the DeepSol protein solubility set.

Test: soluble on expression in E. coli; label from the status in PepcDB or PDB records

Sequence | soluble on expression in E. coli
MYHNSSQKRHWTFSSEEQLARLRADANRKFRCKAVANGKVLPNDPVFLEPHEEMTLCKYYEKRLLEFCSVFKPAMPRSVVGTACMYFKRFYLNNSVMEYHPRIIMLTCAFLACKVDEFNVSSPQFVGNLRESPLGQEKALEQILEYELLLIQQLNFHLIVHNPYRPFEGFLIDLKTRYPILENPEILRKTADDFLNRIALTDAYLLYTPSQIALTAILSSASRAGITMESYLSESLMLKENRTCLSQLLDIMKSMRNLVKKYEPPRSEEVAVLKQKLDRCHSAELALNVITKKRKGYEDDDYVSKKSKHEEEEWTDDDLVESL | soluble
MGSDKIHHHHHHMLIQIADLFTPAEAAQIRARLEAADWVDGKVTAGYQSAQVKHNRQLSEQHPLAQELGGLILQRLAANNLFMSAALPRKIFPPLFNRYEGGEAFGYHVDNALRPVPGTAERVRTDLSATLFFSEPDSYDGGELVVDDTYGPRTVKLPAGHMVLYPGTSLHKVTPVTRGARISAFFWLQSLVREDSQRSLLLEMDVAIQRLNQDTPGHASIVQLTGVYHNLLRRWTDV | not soluble
DAPAVGKDLTQAAENIPPAFHNAPRQGELPALNYVNQPPMVPHSVANYQVTKNVNQCLNCHSPENSRLSGATRISPTHFMDRDGKVGSSSSPRRYFCLQCHVSQANVDPIVPNDFKPMKGYGN | soluble
MGSDKIHHHHHHMNEMWLHRADLAESAINERHASRLWMLPRTNLAVVAWPPTAKERLFYRWHYWWQAHYLDCLIDAASRRTTKARKQRIRDTIVGIRLRNLGRLTKNNYYDDKSWLALALDRERRLNKRAKREYLRVLEGNIAAGQDDIQGVLPWRVGEHFFNVPTNGPAAIMLARNGEVEQARKLVDWIFDNLINDKGLVMDGLRMSMRGPEIVDPVYPYCQGVVIGACIEIAEALPFEESVQYLAHARAVIHAVAKEMATPEGVINAATGDGDGGLFKGILMRYLADAAVRLPEDGPANIATKKIAKRLVMASAESVWEHRLEVDGLPVFATDWCDDARLPHNYGVGGSALSDIVRVVRIDERDLSVQLSGWMLLEAAARVSLVD | not soluble
MGSDKIHHHHHHAQNNADDKYEILSLTDMFSLFKDSKNSVPQDYDEIYVPGYFYEPSFMYPSPLKKEFCCVAQWRIPNRNCKYLFLEDIFPQNKDSLKQASLELQKIKEKYGMRESAMYQDVPAGYNGIIAKWFTGRLFVLHCPRKLFNTVVSKKASLISIHKGRISDEKQITPDEGKFESSCFPQKGGMILIREDGCWYDDIKRNIDFLISPLINENFPTEFSKHVGREYSFLLEVVPKTGQIIPHLLLPKTLSTDEKMIVSYLEKQIRKFPENSFGPLITIDKKMLYGRYLKFIVKDEKFKIEDYLEY | not soluble
MAHHHHHHMADAADTLLLSLEVEAAAARNAELSQTIEMLQDEVLRLRRANASLLACDARHCPKVSLQPVETPSATADVSRDESSAAADAREVFVILDDLLFEMADIRSRIILDERVDLTPRAFDSEATVAAHARRCLEEARKLKEAFVVKQHSTAAQVSELRRALGEQAEANQKQTAASALQCAMLERKYDELKRRYDEAVSRQDELVLDGVIQSPSQMLPRS | soluble
AVKEMVYRTRLANGLTVALLPKKEFKEVYGSVTVQFGSVDTFVTEVDGDVKQYPGGIAHFLEHKLFEREDSSDLMSAFTSLGADSNAFTSFTKTNYLFSATDYFLENLDLLDELVTSAHFTEASILTEQDIIQQEREMYQDDPDSCLFFSTLANLYPGTPLATDIVGSEESISQINLTNLQENFTKFYKPVNMSLFLVGNFDVERVQDYFESKELKDSDFQEVAR | not soluble
MGSDKIHHHHHHMIESIQELLQKEAQAVLNIPVTDAYEKAVELIVEQIHRKKGKLVTSGMGKAGQIAMNIATTFCSTGIPSVFLHPSEAQHGDLGILQENDLLLLISNSGKTREIVELTQLAHNLNPGLKFIVITGNPDSPLASESDVCLSTGHPAEVCTLGMTPTTSTTVMTVIGDILVVQTMKRTEFTIEEYSKRHHGGYLGEKSRKLCVK | not soluble
ISDPVELLKRAEKKGVPSSGFMKLFSGSDSYKFEEAADLCVQAATIYRLRKELNLAGDSFLKAADYQKKAGNEDEAGNTYVEAYKCFKSGGNSVNAVDSLENAIQIFTHRGQFRRGANFKFELGEILENDLHDYAKAIDCYELAGEWYAQDQSVALSNKCFIKCADLKALDGQYIEASDIYSKLIKSSMGNRLSQWSLKDYFLKKGLCQLAATDAVAAARTLQEGQSEDPNFADSRESNFLKSLIDAVNEGDSEQLSEHCKEFDNFMRLDKWKITILNKIKESIQQQEDDLL | soluble
MDKNLLEAVKFDEKGLVCAIAQDAETKRILMVAWMNAEALQKTVETGFAHYYSRSRQKQWMKGEESGHTQKVRALRLDCDGDAIVMLIAQNGGIACHTGRESCFYKVWRGSAWETADAVLKDEKEIYGSTH | not soluble
MAHHHHHHMDVEERTRRCSSLGLAVRNLPRDTASSFVHKFFEDHVGCVQEVMMHSSRPNQSRNIAAPNTNGVDQGKRGNDDNDPPASFGLSGRRDGNSSSGIAVKTCSNDADGNTLCLVFFSAAECVRLAKLLYMRRPELFNVLGVVDGKELRLTIPSKLIRLSRTAHAHCDDGDNTRSKKSSQGEEDTPKGDAEKNDAGT | not soluble
MGSDKIHHHHHHMDSEIIKALKRFGFTQQESIMYVTLCRHGALTGYEAAKLAGISRSNAYAALSSLVEKGGAVVASDDTSKYVPTPRKELLVTIRRHCDETLEFLEQHLPEEQPVEMPYLTVTGYQNTMDKVRNMLRLAQLRVYISMHSGNAAQLKEDMAACAARGLKVVILSDADPQISGAIFMHNAAGTGHIKLIADTREVITGVVDQAARTGQCLYSANEHLVYLMREALLNEIELIKIRSGMSGAEPEESPTRGK | not soluble
MSLDLMTKLKIYNGEEIVEKASIKKIEREELEEECRQKEGMTGVSTRFIIKAINNAICESNCSCINPIDVINSLITAVKEKDLCEEVEDKYISFLEDVVRKEYNKILYKEITKFFIESFNSQGEALFNNYLDHAEAYVNKVYLKDNITGENLDPDEEFMREIEEEIGVTENSSKGFRKDVVAYILYLIRKGEEINCNCYKPLKEAIERKLISSSREISRIINPSKIRNKAQDEKYKFIVEKLKNNGYCDTCAFYTLRYAANNFWRDEGHHHHHH | not soluble
GMSEDHPLDRPVWNSLGGPQSELDVASGNLRRLDPAYGPFAAAAPGAEAGLASLLQGDADEIWLVEPEPVAPPPGTRVIRVAPLLQMIADGPVPSFDDPGIVALGETDVPEMTALALATEPGPWASGTWRYGQFYGVRIDGRLAAMAGERMRPAPNLAEVSGVCTWPEYRGRGLAARLIRKVIAGMAARGEVPYLHSYASNASAIRLYESLGFRARRAMTATLLGKST | soluble
MIEFSHVSKLFGAQKAVNDLNLNFQEGSFSVLIGTSGSGKSTTLKMINRLVEHDSGEIRFAGEEIRSLPVLELRRRMGYAIQSIGLFPHWSVAQNIATVPQLQKWSRARIDDRIDELMALLGLESNLRERYPHQLSGGQQQRVGVARALAADPQVLLMDEPFGALDPVTRGALQQEMTRIHRLLGRTIVLVTHDIDEALRLAEHLVLMDHGEVVQQGNPLTMLTRPANDFVRQFFGRSELGVRLLSLRSVADYVRREERADGEALAEEMTLRDALSLFVARGCEVLPVVNMQGQPCGTLHFQDLLVEA | soluble
MADAAEGEQPKLSKKELNKLARKAKKDEKAGEKGGNQQQAAAMDQEDASKDFYGSYGLVNSKEKKVLNFLKVKEINVSNATKDVWVRGRIHTTRSKGKNCFLVLRQGVYTVQVAMFMNEKISKQMLKFVSSISKESIVDVYATINKVDNPIESCTQKDVELLAQQVFVVSTSAPKLPLQIEDASRRAPTDEEKASEQENQLAVVNLDTRLDNRVIDLRTPTSHAIFRIQAGICNQFRNILDVRGFVEIMAPKIISAPSEGGANVFEVSYFKGSAYLAQSPQLYKQMAIAGDFEKVYTIGPVFRAEDSNTHRHMTEFVGLDLEMAFNFHYHEVMETIAEVLTQMFKGLQQNYQDEIAAVGNQYPAEPFQFCEPPLILKYPDAITLLRENGIEIGDEDDLSTPVEKFLGKLVKEKYSTDFYVLDKFPLSVRPFYTMPDAHDERYSNSYDMFMRGEEILSGAQRIHDADMLVERAKHHQVDLAKIQSYIDSFKYGCPPHAGGGIGLERVTMLFLGLHNIRLASLFPRDPKRLTP | not soluble
MKNPRHIAVIDIGKTNAKLALVDLQNHREIAVLTRPNTVLPGPPWRHFDTDGHWDFLLAALKVLHGEHGIDAISISTHGASVVLLDAQGDLAAPVLDYEHPIPADIAQAYDAIRPPFAQTGSARLANGLNVGAQLFYQFAQDPGLRDRTRHIVGYPQYWGHRLTGEFAWDVTSIGCHTDLWEPVTGRFSSLVDRLGIAEKLAPVRHCADVLGSILPEVAAATGLSADTPVTVGIHDSNASLYPHLLTQEAPFSVVSTGTWVVAMAVGSKVPGLDPTRDTLVNVNAMGQPVPSARFMGGREHEVIQAGQPCPPTPQDVAQVLADSVMILPAVEPASGPFQGRKMRWSGPEPAPGTGPRSAALSFYLALMTSTCLALIAARGVTIVEGPFAQNREFKSMLSVATGRAVLHSQSATGTSMGASLLFSSDRTPPLPQTNVSEEDAQAYRTYAKEWHQQITLEHHHHHH | not soluble
MGSDKIHHHHHHMLPQSFSYKVIRHNMITVAHLINNIVQSGPVIVMRDIIRHMDRDKFHPIVICLRHEEKEDPIVKELRAIDVKCIYLNYSLLSLELQTGRIARKVLSVLRNEKAHILHSHGYHPDLIASHLSRNITSLSTLHNISKDDFTFLKGNLLGSYMNFRYLRSLSKIGHYVAISRAVADYYASHVNKAKERIRIIHNGVDLSFFQIPDEDHQKQLRHRLGLPVSGKIFLVVGRLFSRKDPLIIIRAFKFLLESQKLSGDFYLFFLGDGPLSDACQKEIGDKTHNIRLLGFQKNVHEYMMAADYAITASHSEGFGLNYLEATACGKPVVATDLPPFREICGTGFQDNELFFSVGNQKELEDCILKSLGHTFNPQKVSDIRHHFSAETMSVQYQNYYTELSAPLK | not soluble
GPGSMSLLKGKEVEVTQDDQRRICIFARMHRRRKELTATITRLKEQAAKLSDASDELMIADGAMYLFGETFVAIDNDEAGEWLAKEQAQLQRDQETTEEELKLVESQLSDLKAKLYASLGSQVYLEDE | soluble
MRKIIVGSRKSKLALTQTNWFIDQLKALGLPYEFEVKEIVTKGDVILDVTLSKVGGKGLFVKEIEHALLTKEIDMAVHSMKDMPAVLPEGLMIGCTPKRVDPRDAFISKSGASYKELAEGAILGTSSLRRSAQLLAARPDLQVKWIRGNIDTRLRKLKEEDYDAIILATAGLQRMGWDNEVITEHLDETLCVPAVGQGALAIECREDDKDLLQLLAHINDAVTEKTVAAERVFLHKLEGGCQVPIAGYATITENDAIELTALVGSMDGSVLLKETVVGTDPEKVGLEAADRLIKQGAKELILAANKGQQ | not soluble
MEDRREALISKLMNMLVENGFSVSGTGFQPVATFDIVARRDVERYILKVLYNIDTLKQSTAYQLIKLAKLLRATAAIIGERTGNGQLEDGVVYYRHGVPISSVNTFESYLNGERPYIYSGPGGFYVRINGELLRERRNELNLSIGNISSYLGVSRRSVSLYENGSAATIDIFIRLRNILKADIVDHIDLFRINSTEINFEEKISDEYIARIIWLLQKYGLDTRPIFKVPFDIVAKDSDEISLIAALIGDAPEPERVRILKKISDVFEDDAFLVSKSNTYRESIGGCAVLTISDLESIEDKDALIGKIEKRAK | not soluble
PVERMRMRPWLEEQINSNTIPGLKWLNKEKKIFQIPWMHAARHGWDVEKDAPLFRNWAIHTGKHQPGIDKPDPKTWKANFRCAMNSLPDIEEVKDRSIKKGNNAFRVYRMLP | soluble
